T1: Recombinant NT antigen (N-terminal pro-brain natriuretic peptide, NT-proBNP) (human, UniProt P16860 27-102)
T1 construct: domain: N-terminal pro-brain natriuretic peptide (NT-proBNP); also called recombinant NT protein; N-terminal pro-B-type natriuretic peptide
T1 sequence (looked up): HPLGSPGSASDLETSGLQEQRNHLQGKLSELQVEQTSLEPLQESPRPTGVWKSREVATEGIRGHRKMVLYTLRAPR


These binders were tested against T1, Recombinant NT antigen (N-terminal …) (assay: indirect ELISA, KD calculated from half-max OD at 4 coating concentrations).
Experimental: Recombinant NT antigen was diluted with coating solution to 1 μg/ml a microplate overnight at 4° C.; which was washed twice with washing solution and patted dry on the next day; with addition of blocking solution (20% BSA+80% PBS) at 120 μL per well at 37° C. for 1 h and patted dry; added the diluted NT monoclonal antibody, 100 μL/well at 37° C. for 30 min (partial supernatant for 1 h); washed 5 times with washing solution and patted dry; added rabbit anti-goat IgG-HRP […] per well at 37° C. for 30 min; washed 5 times with washing solution and patted dry; added color developing solution A (50 μL/well), added color developing solution B (50 μL/well) for 10 min; added stop solution, 50 μL/well; followed by reading the OD value at 450 nm (reference 630 nm) on the microplate reader.
Data from the enzyme immunoassay indirect method were analyzed in the same way as the activity identification, with four gradients of 3 μg/ml, 1.5 μg/ml, 0.75 μg/ml and 0.375 μg/ml for coating; the antibody was diluted from 1000 ng/ml by 2 times to 0.977 ng/ml for loading sample. OD values corresponding to different antibody concentrations at different coating concentrations were obtained. Under the same coating concentration, data were plotted logarithmically with the antibody concentration as the abscissa and the OD value as the ordinate.

Row | Kd [nM] | Binder
1 | 0.855 | Mutation 1-27 (antibody) heavy: QVRLQESGPSQVKPAQTLSLTCAISGFSITTYYIDWVRHTPGKPPEWLAQMTKDGNAVHNPTLRSRLSITRDTSKSQVFLKLTGVTTEDTAVYYCVRGLIDFGPGLLVTVSSASTTPPKVYPLTSCCGDTSSSIVTLGCLVSSYMPEPVTVTWNSGALTSGVHTFPAILQSSGLYSLSSVVTVPASTSGAQTFICNVAHPASSTKVDKRVEPGCPDPCKHCRCPPPELPGGPSVFIFPPKPKDTLTISGTPEVTCVVVDVGQDDPEVQFSWFVDNVEVRTARTKPREEQFNSTFRVVSALPIQHQDWTGGKEFKCKVHNEGLPAPIVRTISRTKGQAREPQVYVLAPPQEELSKSTLSVTCLVTGFYPDYIAVEWQKNGQPESEDKYGTTTSQLDADGSYFLYSRLRVDKNSWQEGDTYACVVMHEALHNHYTQKSISKPPGK light: QAVLTQPSSVSRSLGQTVSITCSGSSDNVGFGDYVNWFQLIPGSAPKTLIFGASSRIRGVPDRFSGSRSGNTATLTINSLQAEDEADYYCGSANSRNYVFGSGTRLTVLSQPKSAPSVTLFPPSKEELDTNKATVVCLISDFYPGSVNVVWKADGSTINQNVKTTQASKQSNSKYAASSYLTLTGSEWKSKSSYTCEVTHEGSTVTKTVKPSECS
2 | 1.84 | Mutation 1-31 (antibody) heavy: QVRLQESGPSQVKPAQTLSLTCAISGFSLTTYYLDWVRHTPGKPPEWLAQMTKDGNAVHQPTVRSRLSITRDTSKSQVFLKLTGVTTEDTAVYYCVRGIIDFGPGLLVTVSSASTTPPKVYPLTSCCGDTSSSIVTLGCLVSSYMPEPVTVTWNSGALTSGVHTFPAILQSSGLYSLSSVVTVPASTSGAQTFICNVAHPASSTKVDKRVEPGCPDPCKHCRCPPPELPGGPSVFIFPPKPKDTLTISGTPEVTCVVVDVGQDDPEVQFSWFVDNVEVRTARTKPREEQFNSTFRVVSALPIQHQDWTGGKEFKCKVHNEGLPAPIVRTISRTKGQAREPQVYVLAPPQEELSKSTLSVTCLVTGFYPDYIAVEWQKNGQPESEDKYGTTTSQLDADGSYFLYSRLRVDKNSWQEGDTYACVVMHEALHNHYTQKSISKPPGK light: QAVLTQPSSVSRSLGQTVSITCSGSSDNVGFGDYLNWFQLIPGSAPKTLIFGATSRLRGVPDRFSGSRSGNTATLTINSLQAEDEADYYCGSGNSRNYVFGSGTRLTVLSQPKSAPSVTLFPPSKEELDTNKATVVCLISDFYPGSVNVVWKADGSTINQNVKTTQASKQSNSKYAASSYLTLTGSEWKSKSSYTCEVTHEGSTVTKTVKPSECS
3 | 17.8 | WT 1-1 (antibody, V domains shown) VH: QVRLQESGPSQVKPAQTLSLTCAISGPSVTTYYIDWVRHTPGKPPEWLAQMTKDANAVHNPTIRSRLSITRDTSKSQVFLKLTGVTTEDTAVYYCVKGVIDWGPGLLVTVSS V domain: QAVLTQPSSVSRSLGQTVSITCSGSSDNVGPGDYINWFQLIPGSAPKTLIFAAYSRIRGVPDRFSGSRSGNTATLTINSLQAEDEADYYCGSANSRNYVWGSGTRLTVLS
4 | 3.48 | WT 1-2 (antibody, V domains shown) VH: QVRLQESGPSQVKPAQTLSLTCAISGPSLTTYYIDWVRHTPGKPPEWLAQMTKDANAVHQPTLRSRLSITRDTSKSQVFLKLTGVTTEDTAVYYCVKGVIDWGPGLLVTVSS V domain: QAVLTQPSSVSRSLGQTVSITCSGSSDNVGPGDYLNWFQLIPGSAPKTLIFAASSRIRGVPDRFSGSRSGNTATLTINSLQAEDEADYYCGSPNSRNYVWGSGTRLTVLS
5 | 6.83 | Mutation 1-49 (antibody) heavy: QVRLQESGPSQVKPAQTLSLTCAISGFSLTTYYLDWVRHTPGKPPEWLAQMTKDGNAVHNPTIRSRLSITRDTSKSQVFLKLTGVTTEDTAVYYCVRGIIDFGPGLLVTVSSASTTPPKVYPLTSCCGDTSSSIVTLGCLVSSYMPEPVTVTWNSGALTSGVHTFPAILQSSGLYSLSSVVTVPASTSGAQTFICNVAHPASSTKVDKRVEPGCPDPCKHCRCPPPELPGGPSVFIFPPKPKDTLTISGTPEVTCVVVDVGQDDPEVQFSWFVDNVEVRTARTKPREEQFNSTFRVVSALPIQHQDWTGGKEFKCKVHNEGLPAPIVRTISRTKGQAREPQVYVLAPPQEELSKSTLSVTCLVTGFYPDYIAVEWQKNGQPESEDKYGTTTSQLDADGSYFLYSRLRVDKNSWQEGDTYACVVMHEALHNHYTQKSISKPPGK light: QAVLTQPSSVSRSLGQTVSITCSGSSDQVGFGDYLNWFQLIPGSAPKTLIFGATSRLRGVPDRFSGSRSGNTATLTINSLQAEDEADYYCGSPNSRNYVFGSGTRLTVLSQPKSAPSVTLFPPSKEELDTNKATVVCLISDFYPGSVNVVWKADGSTINQNVKTTQASKQSNSKYAASSYLTLTGSEWKSKSSYTCEVTHEGSTVTKTVKPSECS
6 | 3.12 | Mutation 1-34 (antibody, V domains shown) VH: QVRLQESGPSQVKPAQTLSLTCAISGFSVTTYYLDWVRHTPGKPPEWLAQMTKDGNAVHNPTIRSRLSITRDTSKSQVFLKLTGVTTEDTAVYYCVRGVIDWGPGLLVTVSS VL: QAVLTQPSSVSRSLGQTVSITCSGSSDQVGFGDYLNWFQLIPGSAPKTLIFGAYSRLRGVPDRFSGSRSGNTATLTINSLQAEDEADYYCGSANSRNYVFGSGTRLTVLS
7 | 2.45 | Mutation 1-39 (antibody) heavy: QVRLQESGPSQVKPAQTLSLTCAISGFSLTTYYIDWVRHTPGKPPEWLAQMTKDGNAVHNPTLRSRLSITRDTSKSQVFLKLTGVTTEDTAVYYCVRGLIDFGPGLLVTVSSASTTPPKVYPLTSCCGDTSSSIVTLGCLVSSYMPEPVTVTWNSGALTSGVHTFPAILQSSGLYSLSSVVTVPASTSGAQTFICNVAHPASSTKVDKRVEPGCPDPCKHCRCPPPELPGGPSVFIFPPKPKDTLTISGTPEVTCVVVDVGQDDPEVQFSWFVDNVEVRTARTKPREEQFNSTFRVVSALPIQHQDWTGGKEFKCKVHNEGLPAPIVRTISRTKGQAREPQVYVLAPPQEELSKSTLSVTCLVTGFYPDYIAVEWQKNGQPESEDKYGTTTSQLDADGSYFLYSRLRVDKNSWQEGDTYACVVMHEALHNHYTQKSISKPPGK light: QAVLTQPSSVSRSLGQTVSITCSGSSDNVGFGDYVNWFQLIPGSAPKTLIFGAYSRIRGVPDRFSGSRSGNTATLTINSLQAEDEADYYCGSGNSRNYVFGSGTRLTVLSQPKSAPSVTLFPPSKEELDTNKATVVCLISDFYPGSVNVVWKADGSTINQNVKTTQASKQSNSKYAASSYLTLTGSEWKSKSSYTCEVTHEGSTVTKTVKPSECS
8 | 1.57 | Mutation 1-37 (antibody) heavy: QVRLQESGPSQVKPAQTLSLTCAISGFSITTYYLDWVRHTPGKPPEWLAQMTKDGNAVHNPTIRSRLSITRDTSKSQVFLKLTGVTTEDTAVYYCVRGIIDFGPGLLVTVSSASTTPPKVYPLTSCCGDTSSSIVTLGCLVSSYMPEPVTVTWNSGALTSGVHTFPAILQSSGLYSLSSVVTVPASTSGAQTFICNVAHPASSTKVDKRVEPGCPDPCKHCRCPPPELPGGPSVFIFPPKPKDTLTISGTPEVTCVVVDVGQDDPEVQFSWFVDNVEVRTARTKPREEQFNSTFRVVSALPIQHQDWTGGKEFKCKVHNEGLPAPIVRTISRTKGQAREPQVYVLAPPQEELSKSTLSVTCLVTGFYPDYIAVEWQKNGQPESEDKYGTTTSQLDADGSYFLYSRLRVDKNSWQEGDTYACVVMHEALHNHYTQKSISKPPGK light: QAVLTQPSSVSRSLGQTVSITCSGSSDQVGFGDYLNWFQLIPGSAPKTLIFGATSRLRGVPDRFSGSRSGNTATLTINSLQAEDEADYYCGSANSRNYVFGSGTRLTVLSQPKSAPSVTLFPPSKEELDTNKATVVCLISDFYPGSVNVVWKADGSTINQNVKTTQASKQSNSKYAASSYLTLTGSEWKSKSSYTCEVTHEGSTVTKTVKPSECS
9 | 2.53 | WT 1-3 (antibody) heavy: QVRLQESGPSQVKPAQTLSLTCAISGPSITTYYLDWVRHTPGKPPEWLAQMTKDANAVHQPTIRSRLSITRDTSKSQVFLKLTGVTTEDTAVYYCVKGLIDFGPGLLVTVSSASTTPPKVYPLTSCCGDTSSSIVTLGCLVSSYMPEPVTVTWNSGALTSGVHTFPAILQSSGLYSLSSVVTVPASTSGAQTFICNVAHPASSTKVDKRVEPGCPDPCKHCRCPPPELPGGPSVFIFPPKPKDTLTISGTPEVTCVVVDVGQDDPEVQFSWFVDNVEVRTARTKPREEQFNSTFRVVSALPIQHQDWTGGKEFKCKVHNEGLPAPIVRTISRTKGQAREPQVYVLAPPQEELSKSTLSVTCLVTGFYPDYIAVEWQKNGQPESEDKYGTTTSQLDADGSYFLYSRLRVDKNSWQEGDTYACVVMHEALHNHYTQKSISKPPGK light: QAVLTQPSSVSRSLGQTVSITCSGSSDNVGPGDYVNWFQLIPGSAPKTLIFAATSRIRGVPDRFSGSRSGNTATLTINSLQAEDEADYYCGSANSRNYVWGSGTRLTVLSQPKSAPSVTLFPPSKEELDTNKATVVCLISDFYPGSVNVVWKADGSTINQNVKTTQASKQSNSKYAASSYLTLTGSEWKSKSSYTCEVTHEGSTVTKTVKPSECS
10 | 0.944 | Mutation 1-51 (antibody) heavy: QVRLQESGPSQVKPAQTLSLTCAISGFSVTTYYIDWVRHTPGKPPEWLAQMTKDGNAVHNPTLRSRLSITRDTSKSQVFLKLTGVTTEDTAVYYCVRGLIDFGPGLLVTVSSASTTPPKVYPLTSCCGDTSSSIVTLGCLVSSYMPEPVTVTWNSGALTSGVHTFPAILQSSGLYSLSSVVTVPASTSGAQTFICNVAHPASSTKVDKRVEPGCPDPCKHCRCPPPELPGGPSVFIFPPKPKDTLTISGTPEVTCVVVDVGQDDPEVQFSWFVDNVEVRTARTKPREEQFNSTFRVVSALPIQHQDWTGGKEFKCKVHNEGLPAPIVRTISRTKGQAREPQVYVLAPPQEELSKSTLSVTCLVTGFYPDYIAVEWQKNGQPESEDKYGTTTSQLDADGSYFLYSRLRVDKNSWQEGDTYACVVMHEALHNHYTQKSISKPPGK light: QAVLTQPSSVSRSLGQTVSITCSGSSDNVGFGDYVNWFQLIPGSAPKTLIFGAYSRIRGVPDRFSGSRSGNTATLTINSLQAEDEADYYCGSANSRNYVFGSGTRLTVLSQPKSAPSVTLFPPSKEELDTNKATVVCLISDFYPGSVNVVWKADGSTINQNVKTTQASKQSNSKYAASSYLTLTGSEWKSKSSYTCEVTHEGSTVTKTVKPSECS
